Biological target: the molecule itself
Assay: SEC; analytical SEC of the pools of the downstream process; Superdex 200 GL, 50 mM sodium phosphate buffer pH 8, UV detection at 226 and 280 nm; column calibrated with seven proteins of 13.7 to 669 kDa; oligomer size from the calibration (with IEF profile and activity test as support)

B1: recombinant urate oxidase from Aspergillus flavus (rasburicase) (enzyme, UniProt Q00511 1-302, looked up)
chain: MSAVKAARYGKDNVRVYKVHKDEKTGVQTVYEMTVCVLLEGEIETSYTKADNSVIVATDSIKNTIYITAKQNPVTPPELFGSILGTHFIEKYNHIHAAHVNIVCHRWTRMDIDGKPHPHSFIRDSEEKRNVQVDVVEGKGIDIKSSLSGLTVLKSTNSQFWGFLRDEYTTLKETWDRILSTDVDATWQWKNFSGLQEVRSHVPKFDATWATAREVTLKTFAEDNSASVQATMYKMAEQILARQQLIETVEYSLPNKHYFEIDLSWHKGLQNTGKNAEVFAPQSDPNGLIKCTVGRSSLKSKL
notes: urate oxidase (uricase, EC 1.7.3.3) from Aspergillus flavus, recombinant form (rasburicase); subunit of about 34 kDa, 135 kDa tetramer of identical subunits; Several isoforms are seen by IEF even in the purest pool; also called Fasturtec; Elitek; source: expressed in a genetically modified Saccharomyces cerevisiae strain; supplied by Sanofi-Aventis, sampled at different steps of the downstream …
In the case of B1, the “stoichiometry N” value is reported as 4.

— article PMC3092763, “Urate Oxidase Purification by Salting-in Crystallization: Towards an Alternative to Chromatography” (PLoS ONE, 2011)
